Data as given in patent publication US9347942B2, “Ultrasensitive cell based sensors and uses thereof” (CANVAX BIOTECH SL, priority 2010, dated 2016).
FAM = fluorophore of the FRET substrate

Experiments:
[1] = test system: RBL-2H3 cells; assay: Ionomycin-induced release of granule stored protease reporters from stable cell lines (Example 5); type: cell-based, Rat; details: stable RBL-2H3, 10 uM ionomycin 1 hour, supernatant equivalent to 100.000 cells, AMC substrate
Description: As either tryptase-like enzymes, chymase-like enzymes, elastase-like enzymes or asp-ase like enzymes are useful for the methods of the present invention we selected human granzyme A (tryptase-like enzyme); human granzyme B (Asp-ase-like enzyme); human chymase (chymase-like enzyme) and human proteinase 3 (elastase-like enzyme) for further examples. Vectors were developed for stable expression of human granzyme A, human granzyme B, human chymase and human proteinase 3 under the control of hCMV-MoMLV5′LTR chimeric promoter. A hygromycin resistance cassette was included in the vector backbone for selection of stable populations of cells. The vector also included an IRES-NGFR cassette cloned downstream of granule stored protease reporter and thus, under the control of hCMV-MoMLV5′LTR promoter for flow cytometry and/or selection by MACS of stable cells expressing either human granzyme A or human granzyme B or human chymase or human proteinase 3. Each vector was individually electroporated using a microporator (Digital Bio Technology, South Korea) into RBL-2H3 and after 48 hours hygromycin at 1500 ug/mL was added to culture for selection. After selection for about 2 weeks cells were analysed by flow cytometry (Guava Technologies, USA) with an antibody against NGFR coupled to FITC. Positive population where magnetically separated by MACS using anti-NGFR-MACS sup.R (Miltenyi Biotec, Germany). Sorted populations were again analysed again by flow cytometry to check the sorting efficiency. Percentage of NGFR positive cells was always higher than 65 percent. Cells were seeded the night before experiment in 24 well microplates at 650.000 cells per well in 800 microliters of complete cell culture medium. Next day cells were washed with HBSS buffer and were treated with 10 uM ionomycin for 1 hour at 37 Celsius degrees in 200 uL of HBSS buffer and after centrifugation at 400 g for 5 minutes supernatants were analysed for activity with specific fluorescent substrates. Controls of cells incubated with HBSS buffer only were included. Fluorescent substrates were: VANR-AMC for granzyme A; PEEI-AMC for human neutrophil elastase; PTSY-AMC for human chymase; VADC-AMC for human proteinase 3 and IEPD-AMC for human granzyme B. Released AMC was measured by excitation at 360 nm and emission at 460 nm in a BMG Labtech microplate fluorimeter in 96 well microplates using 125 microliters of supernatant and 125 microliters of specific substrate at 400 micromol per liter in HBSS buffer. Microplates were incubated at 37 Celsius degrees on the reader and were kinetically read at 0, 15, 30, 45 and 60 minutes. Control wells with substrate only in HBSS buffer were included to subtract autofluorescence of substrates to both cells treated with ionomycin and to cells treated with HBSS buffer only. Autofluorescence of peptide substrates in HBSS buffer was about 3000 while fluorescence of cells treated with HBSS buffer only for 60 minutes at 37 Celsius degrees was about 5000, that is basal release in the absence of exocytosis modulator was about 2000. In contrast, fluorescence of ionomycin-induced release of human granzymes A and B was about 20.000 for a signal to background of 10 when using the supernatant equivalent to 100.000 cells; fluorescence of ionomycin-induced release of human chymase was about 30.000 for a signal to background of 15 when using the supernatant equivalent to 100.000 cells and fluorescence of ionomycin-induced release of human proteinase 3 was about 12.000 for a signal to background of 6 when using the supernatant equivalent to 100.000 cells. Thus, tryptase-like enzymes, chymase-like enzymes, elastase-like enzymes or asp-ase like enzymes can be stably expressed into granules of hemopoyetic cells with professional regulated exocytosis and such granule stored proteases are released by exocytosis modulators to produce sensors with good signal to background ratios using specific AMC-coupled peptide substrates. […]

[2] = test system: RBL-2H3 cells; assay: Ionomycin-induced release of granzyme B from different species, stable cell lines (Example 6); type: cell-based, Rat; details: 100.000 cells per well, 10 uM ionomycin 1 hour, IEPD-AMC
Description: This experiment was designed to test if granule stored protease reporters from other species different from human could be used for the methods of the present invention. As an example we selected granzyme B from different species. Vectors were developed for expression of human, rat, horse and chimpanzee granzyme B and RBL-2H3 cells were individually transfected with the plasmids comprising the chimeric promoter of hCMV-MoMLV5′LTR-GranzymeB-IRES-NGFR with hygromycin resistance for stable transfections. Each vector was individually electroporated using a microporator (Digital Bio Technology, South Korea) into RBL-2H3 and after 48 hours hygromycin at 1500 ug/ml_was added to culture for selection. After selection for about 2 weeks cells were analysed by flow cytometry (Guava Technologies, USA) with an antibody against NGFR coupled to FITC. Positive population where magnetically separated by MACS using anti-NGFR-MACS sup.R (Miltenyi Biotec, Germany). Sorted populations were again analysed again by flow cytometry to check the sorting efficiency. Percentage of NGFR positive cells was always higher than 65 percent. Cells were seeded the night before experiment in 96 well microplates at 100.000 cells per well in 100 microliters of medium. Next day cells were washed with BSS buffer and were treated with 10 uM ionomycin for 1 hour at 37 Celsius degrees in 105 uL of HBSS buffer and after centrifugation at 400 g for 5 minutes supernatants were analysed for activity with specific fluorescent substrates. Controls of cells incubated with HBSS buffer only were included. Fluorescent substrate was IEPD-AMC for all granzymes B tested. Released AMC was measured by excitation at 360 nm and emission at 460 nm in a BMG Labtech microplate fluorimeter in 96 well microplates using 105 microliters of supernatant and 145 microliters of specific substrate at 345 micromol per liter in HBSS buffer. Microplates were incubated at 37 Celsius degrees on the reader and were kinetically read at 0, 15, 30, 45 and 60 minutes. Control wells with substrate only in HBSS buffer were included to subtract autofluorescence of substrates to both cells treated with ionomycin and to cells treated with HBSS buffer only.

[3] = target: T1, human granzyme B (Homo sapiens, UniProt P10144); assay: Direct detection of secreted granzyme B with peptide substrates (Example 10); type: biochemical; details: for signal to background: ionomycin 10 uM
T1 construct: expressed in transfected cells; host or cells: supernatant of RBL-2H3 stably transfected with human granzyme B, treated with ionomycin
Description: Human granzyme B was used as a model enzyme. […] Cleavage of FAM-TAMRA labelled peptide was detected by fluorescence using excitation at 485 nm and emission at 535 nm and labelled peptide at 1 uM final concentration.
For each substrate the exocytosis of 50.000, 25.000, 12.500, 6.250, 3.125, 1560, 780 and 390 cells was analysed. Cells were seeded the night before experiment at the above densities in 96 well plates using 100 uL of complete cell culture medium per well. The day of experiment cells were washed with HBSS buffer and exocytosis was initiated by addition of ionomycin at 10 uM final concentration in HBSS buffer and incubation for 60 minutes at 37 Celsius degrees. Controls of cells treated with HBSS buffer only were included for basal release determination. Five replicas of each cell density for each substrate were seeded. Supernatant from cells were centrifuged at 400 g for 5 minutes and used for fluorescence determination in 96 well plates. Released AMC was measured by excitation at 360 nm and emission at 460 nm in a BMG Labtech microplate fluorimeter in 96 well microplates while released FAM was measured by excitation at 485 nm and emission at 535 nm in the same reader. Microplates were incubated at 37 Celsius degrees on the reader and were kinetically read at 0, 15, 30, 45 and 60 minutes. Control wells with substrate only in HBSS buffer were included to subtract autofluorescence of substrates to both cells treated with ionomycin and to cells treated with HBSS buffer only. An arbitrary signal to background of about two was selected as sensitivity.

[4] = target: T2, hIL8 receptor (hIL8RA) (Homo sapiens, UniProt P25024); assay: Multiplex assay, Sensor A channel (hIL8RA and human granzyme A) (Example 14); type: cell-based; details: for Signal to background at 30 min: granzyme A substrate 1 uM
T2 construct: the entire human GPCR; mouse immunoglobulin kappa signal peptide (N); expressed in transfected cells
T2 sequence (P25024 3-350 limits assumed): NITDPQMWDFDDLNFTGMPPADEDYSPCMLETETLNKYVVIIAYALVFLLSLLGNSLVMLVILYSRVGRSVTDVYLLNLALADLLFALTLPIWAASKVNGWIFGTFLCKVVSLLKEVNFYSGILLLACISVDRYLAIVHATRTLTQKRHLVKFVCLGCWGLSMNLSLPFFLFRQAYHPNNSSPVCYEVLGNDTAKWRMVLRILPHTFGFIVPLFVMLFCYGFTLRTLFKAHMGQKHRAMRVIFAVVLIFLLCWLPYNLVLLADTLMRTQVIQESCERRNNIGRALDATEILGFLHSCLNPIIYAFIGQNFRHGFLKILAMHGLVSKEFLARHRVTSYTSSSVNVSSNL
Description: (§1) The principle of multiplex reactions is illustrated in FIG. 5. RBL2H3 cells were stably transfected with a pair of a GPCR as exocytosis modulator and a granzyme as a granule stored reporter as described in example 9. Combinations included were: hIL8 receptor (hIL8RA) and human granzyme A (Sensor A) and CHRM2 and granzyme B expressing cells of example #12 (Sensor B). Human IL8 was used as agonist of hll_8R while carbachol was used as CHRM2 agonist. […] As both substrates uses the same pair of fluorophore (FAM) and quencher (TAMRA) only one substrate could be added to reaction vessel for specific detection at 535 nm after excitation at 485 nm. […] Sensors, agonists and substrates were mixed in a total volume of 20 uL of HBSS in a black walled 384 well microplate and the microplate was incubated at 37 Celsius degrees in a BMG-Labtech microplate fluorimeter and read at 0, 15, 30, 45 and 60 minutes.

[5] = target: T3, CHRM2 (Homo sapiens, UniProt P08172); assay: Multiplex assay, Sensor B channel (CHRM2 and granzyme B) (Example 14); type: cell-based; details: Condition 9: Sensor A 12500 + Sensor B 5000 cells, IL8 10 uM, no carbachol, granzyme B substrate 1 uM
T3 construct: the entire human GPCR; mouse immunoglobulin kappa signal peptide (N); expressed in transfected cells
T3 sequence (P08172 2-466): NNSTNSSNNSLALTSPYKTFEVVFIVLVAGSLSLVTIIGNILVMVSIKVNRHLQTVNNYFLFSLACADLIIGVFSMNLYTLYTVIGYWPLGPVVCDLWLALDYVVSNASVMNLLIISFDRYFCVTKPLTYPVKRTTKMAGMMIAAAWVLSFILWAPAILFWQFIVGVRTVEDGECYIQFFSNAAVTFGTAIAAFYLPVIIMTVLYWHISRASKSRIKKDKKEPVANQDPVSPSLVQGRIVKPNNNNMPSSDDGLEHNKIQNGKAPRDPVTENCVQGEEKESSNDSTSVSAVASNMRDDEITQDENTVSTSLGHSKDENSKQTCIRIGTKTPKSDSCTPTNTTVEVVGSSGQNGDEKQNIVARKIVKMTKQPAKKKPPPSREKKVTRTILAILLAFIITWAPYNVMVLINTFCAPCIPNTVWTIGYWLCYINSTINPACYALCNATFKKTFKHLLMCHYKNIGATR
Description: as §1

[6] = target: T1, human granzyme B; assay: Procaspase-3 zymogen activation by secreted granzyme B, DEVD-AMC readout (Example 11); type: biochemical
Description: As a model we selected human granzyme B. A human granzyme B activated-zymogen was developed from human native unmodified procaspase-3 (huCasp3) and from a mutated human procaspase-3 (mut-huCasp3) where the amino acids from 172 to 179 has been changed from […]to […] that is Threonine at 174 has been mutated to Proline because IEPD is a better granzyme B substrate than IETD and serine at 176 has been mutated to valine, glycine at 177 has been mutated to leucine, valine at 178 has been mutated to methionine and aspartic acid at 179 has been mutated to glutamic acid in order to both improve cleavage efficiency by human granzyme B and to reduce autoactivation of procaspase-3. cDNA from both variants of human pro-caspase-3 comprising amino acids from Serine at 29 to Aspartic acid at 192 were cloned into pET43a+ vector from Novagen. After sequencing expression vectors were transformed into BL21 DE3pLys E. coli strain for protein expression. Each protein was cloned with a polyhistidine tag at C-terminal end for purification. Human native procaspase-3 (huCasp3) was induced for only 30 minutes to prevent autoactivation, while mutated procaspase-3 (mut-huCasp3) was induced both for 30 minutes and for 2 hours. DEVD-AMC substrate was used for detection of active caspase-3 with excitation at 360 nm and emission at 460 nm. A supernatant equivalent to 15.000 RBL-2H3 stably transfected with human granzyme B treated with 10 uM ionomycin for 60 minutes was used for zymogen activation. Human granzyme B activity of such supernatant when measured with IEPD-AMC produced a signal to background of 2.6 after incubation for 60 minutes at 37 Celsius degrees using a supernatant equivalent to 25.000 cells. Background of fluorescence of DEVD-AMC substrate was 2775 and was subtracted from both granzyme B treated caspase-3 and non-granzyme B treated caspase-3 (caspase-3 only) used as control and all samples were tested by triplicate.

T1 sequence (P10144 21-247): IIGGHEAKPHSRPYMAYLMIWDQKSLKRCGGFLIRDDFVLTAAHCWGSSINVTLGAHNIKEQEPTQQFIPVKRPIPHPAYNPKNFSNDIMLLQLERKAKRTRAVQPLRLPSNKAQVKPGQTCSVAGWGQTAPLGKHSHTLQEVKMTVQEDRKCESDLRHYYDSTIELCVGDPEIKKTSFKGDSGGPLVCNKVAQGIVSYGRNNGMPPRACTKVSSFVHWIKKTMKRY

## Human granzyme B: Asp-ase-like serine protease (GZMB, NM_004131) used as granule stored reporter
[1]
  fluorescence of ionomycin-induced release: about 20.000
  signal to background: 10
[2]
  Fluorescence of supernatant from cells treated with ionomycin: 20,000
  signal to background: 10

## FAM-Ser-Ile-Glu-Pro-Asp-Ser-Gly-Ser-TAMRA ({FAM}-SIEPDSGS-{TAMRA}) [FAM-TAMRA peptide, custom designed FRET based granzyme B substrate]
[3]; 390 cells
  signal to background: < 2
[3]; 780 cells
  signal to background: 3
[3]; sensitivity taken as 780 cells
  times more sensitive for detection of granzyme B than IEPD-AMC peptide: more than 30 times

## IL8: Human IL8 used as agonist of hIL8R
[4]; Condition 2: 12500 cells Sensor A, IL8 10 uM
  Signal to background at 30 min: 16
[4]; Condition 5: Sensor A 12500 + Sensor B 5000 cells, IL8 10 uM + carbachol 10 uM
  Signal to background at 30 min: 12.5
[4]; first experiment, data not shown
  maximal granzyme A activity secreted by sensor A upon IL8, relative to granzyme B activity secreted by sensor B upon carbachol: about 40%
[5]
  Signal to background at 30 min: 0.95

B1: Native (unmodified) huCasp-3: human native unmodified procaspase-3 zymogen expressed in E. coli with polyhistidine tag (protein, UniProt P42574 1-277, looked up)
pro-form: MENTENSVDSKSIKNLEPKIIHGSESMDSGISLDNSYKMDYPEMGLCIIINNKNFHKSTGMTSRSGTDVDAANLRETFRNLKYEVRNKNDLTREEIVELMRDVSKEDHSKRSSFVCVLLSHGEEGIIFGTNGPVDLKKITNFFRGDRCRSLTGKPKLFIIQACRGTELDCGIETDSGVDDDMACHKIPVEADFLYAYSTAPGYYSWRNSKDGSWFIQSLCAMLKQYADKLEFMHILTRVNRKVATEFESFSFDATFHAKKQIPCIVSMLTKELYFYH
modifications: pro-form polyhistidine tag
notes: human native unmodified procaspase-3 zymogen expressed in E. coli with polyhistidine tag
[6]; 15.000 cells versus 25.000 cells
  times more sensitive than direct detection of secreted granzyme B with IEPD-AMC: about 1.7 times
[6]; no granzyme B, DEVD-AMC, background 2775 subtracted
  Fluorescence of Caspase-3 only: 15775
[6]; supernatant equivalent to 15.000 cells, DEVD-AMC
  signal to background (S/B): 2.8
[6]; supernatant equivalent to 15.000 ionomycin treated cells, DEVD-AMC, background 2775 subtracted
  Fluorescence of caspase-3 treated with granzyme B: 43548

B2: Rat granzyme B: Granzyme B of rat (NM_138517) used as granule stored reporter (protein, UniProt P18291 21-248, looked up)
Granzyme B: IIGGHEAKPHSRPYMAYLQIMDEYSGSKKCGGFLIREDFVLTAAHCSGSKINVTLGAHNIKEQEKMQQIIPVVKIIPHPAYNSKTISNDIMLLKLKSKAKRSSAVKPLNLPRRNVKVKPGDVCYVAGWGKLGPMGKYSDTLQEVELTVQEDQKCESYLKNYFDKANEICAGDPKIKRASFRGDSGGPLVCKKVAAGIVSYGQNDGSTPRAFTKVSTFLSWIKKTMKKS
[2]
  Fluorescence of supernatant from cells treated with ionomycin: 22,000
  signal to background: 11
